Source: paper PMC11973211, “Mechanistic insights into the structure-based design of a CspZ-targeting Lyme disease vaccine” (Nature Communications, 2025)

Molecular target: T1, human complement factor H (human, UniProt P08603 19-1231)
T1 construct: complement factor H, human; used at 500 nM in the ELISA; also called FH; human FH
Experiment: ELISA; 1 µg histidine-tagged CspZ coated on wells, blocked with 5% BSA in PBS; PBS (control), irrelevant human IgG, #1139c or #1193c (0.4-50 nM) added, then 500 nM human FH; bound FH detected with sheep anti-human FH and donkey anti-sheep HRP
Settings: both partners purified

T1 sequence (P08603 19-1231): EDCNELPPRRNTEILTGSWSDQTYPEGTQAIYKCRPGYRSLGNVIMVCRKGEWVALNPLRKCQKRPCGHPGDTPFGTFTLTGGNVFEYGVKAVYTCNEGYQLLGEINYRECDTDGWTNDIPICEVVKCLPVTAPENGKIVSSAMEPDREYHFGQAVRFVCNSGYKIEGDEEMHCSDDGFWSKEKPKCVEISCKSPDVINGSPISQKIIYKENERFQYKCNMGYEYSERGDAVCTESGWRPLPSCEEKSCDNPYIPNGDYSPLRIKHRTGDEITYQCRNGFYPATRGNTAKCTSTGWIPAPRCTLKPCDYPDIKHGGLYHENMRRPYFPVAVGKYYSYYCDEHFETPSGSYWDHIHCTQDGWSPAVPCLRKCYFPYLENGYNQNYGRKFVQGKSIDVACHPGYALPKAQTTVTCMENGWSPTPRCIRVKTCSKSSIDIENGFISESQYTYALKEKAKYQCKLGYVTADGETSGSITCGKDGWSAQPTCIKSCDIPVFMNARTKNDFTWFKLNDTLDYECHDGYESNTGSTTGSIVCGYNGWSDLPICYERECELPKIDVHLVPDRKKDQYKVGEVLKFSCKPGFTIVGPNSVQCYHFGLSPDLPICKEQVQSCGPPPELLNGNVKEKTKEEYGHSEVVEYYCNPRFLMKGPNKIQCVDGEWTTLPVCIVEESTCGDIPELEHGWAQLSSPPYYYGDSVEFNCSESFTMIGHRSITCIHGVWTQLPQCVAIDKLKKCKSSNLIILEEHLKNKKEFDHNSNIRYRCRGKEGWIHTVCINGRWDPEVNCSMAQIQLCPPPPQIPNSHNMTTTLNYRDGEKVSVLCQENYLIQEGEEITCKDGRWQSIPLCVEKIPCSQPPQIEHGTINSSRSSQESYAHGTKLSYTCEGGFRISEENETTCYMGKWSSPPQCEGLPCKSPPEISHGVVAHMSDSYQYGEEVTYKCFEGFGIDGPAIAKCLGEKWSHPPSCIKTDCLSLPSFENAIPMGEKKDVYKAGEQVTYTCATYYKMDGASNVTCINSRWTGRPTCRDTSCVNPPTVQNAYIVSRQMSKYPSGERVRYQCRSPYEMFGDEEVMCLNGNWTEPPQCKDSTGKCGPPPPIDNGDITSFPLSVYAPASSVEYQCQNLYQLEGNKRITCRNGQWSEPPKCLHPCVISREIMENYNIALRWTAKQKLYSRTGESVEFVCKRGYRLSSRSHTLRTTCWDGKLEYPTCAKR

B1: histidine-tagged CspZ (B. burgdorferi B31 CspZ) (natural protein)
chain: RLNQRNINELKIFVEKAKYYSIKLDAIYNECTGAYNDIMTYSEGTFSDQSKVNQAISIFKKDNKIVNKFKELEKIIEEYKPMFLSKLIDDFAIELDQAVDNDVSNARHVADSYKKLRKSVVLAYIESFDVISSKFVDSKFVEASKKFVNKAKEFVEENDLIALECIVKTIGDMVNDREINSRSRYNNFYKKEADFLGAAVELEGAYKAIKQTLL
notes: CspZ (BbCRASP-2), outer surface protein of Borrelia burgdorferi strain B31; codon-optimised synthetic DNA in pET28a (BamHI/SalI); this is a surmise; also called BbCRASP-2
**Q.** Does B1 bind?
**A.** binds
